Assay results reported in the supplement of paper PMC9112550, “Optimization of the antimicrobial peptide Bac7 by deep mutational scanning” (BMC Biology, 2022).

tested on: Escherichia coli TOP10; experiment: shrunken log2 fold change of peptide-encoding DNA abundance (4.5 h post-induction vs induction); higher = less antimicrobial activity (less host growth inhibition); details: time post-induction: 4.5 h; library: site-saturation at positions 5, 18, 19, 20
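Note: peptides expressed intracellularly from a pBAD plasmid library in pooled LB shake-flask culture, induced with 0.3% L-arabinose, DNA abundance read by NGS, three biological replicates, DESeq2 with apeglm shrinkage.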

Sequence	shrunken log2 fold change
RRIRCRPPRLPRPRPRPYCVPRP	-0.517
RRIRVRPPRLPRPRPRPDFWPRP	0.239
RRIRFRPPRLPRPRPRPMVAPRP	0.297
RRIRGRPPRLPRPRPRPLSCPRP	0.276
RRIRARPPRLPRPRPRPMCFPRP	0.18
RRIRWRPPRLPRPRPRPYGHPRP	-0.478
RRIRTRPPRLPRPRPRPCYDPRP	-0.127
RRIRARPPRLPRPRPRPNPMPRP	0.287
RRIRHRPPRLPRPRPRPMDWPRP	-0.177
RRIRFRPPRLPRPRPRPNCMPRP	-0.143
RRIRFRPPRLPRPRPRPNIIPRP	-0.706
RRIRVRPPRLPRPRPRPCLNPRP	-0.193
RRIRNRPPRLPRPRPRPQIGPRP	0.0326
RRIRCRPPRLPRPRPRPLTGPRP	-0.994
RRIRVRPPRLPRPRPRPCHCPRP	-0.373
RRIRTRPPRLPRPRPRPATYPRP	-0.169
RRIRWRPPRLPRPRPRPSGCPRP	-0.0452
RRIRQRPPRLPRPRPRPPEPPRP	0.834
RRIRRRPPRLPRPRPRPKSFPRP	0.0604
RRIRSRPPRLPRPRPRPTQRPRP	0.547
RRIRFRPPRLPRPRPRPCMVPRP	1.01
RRIRFRPPRLPRPRPRPKRCPRP	0.383
RRIRSRPPRLPRPRPRPRIYPRP	-0.517
RRIRKRPPRLPRPRPRPFEFPRP	0.0169
RRIRIRPPRLPRPRPRPDYPPRP	-0.584

Sequence	shrunken log2 fold change
RRIRLRPPRLPRPRPRPDKAPRP	0.0248
RRIRTRPPRLPRPRPRPRIIPRP	-0.215
RRIRQRPPRLPRPRPRPVCHPRP	-0.13
RRIRYRPPRLPRPRPRPSQCPRP	-0.115
RRIRCRPPRLPRPRPRPCFPPRP	-0.321
RRIRFRPPRLPRPRPRPMHPPRP	-0.082
RRIRHRPPRLPRPRPRPMAIPRP	0.0143
RRIRDRPPRLPRPRPRPRIYPRP	-0.173
RRIRHRPPRLPRPRPRPGCDPRP	0.123
RRIRSRPPRLPRPRPRPQLDPRP	-0.191
RRIRARPPRLPRPRPRPCKGPRP	-0.0784
RRIRQRPPRLPRPRPRPLIRPRP	-0.966
RRIRQRPPRLPRPRPRPFQVPRP	0.0303
RRIRMRPPRLPRPRPRPWMTPRP	0.0698
RRIRARPPRLPRPRPRPKAQPRP	1.26
RRIRDRPPRLPRPRPRPTGFPRP	0.0286
RRIRYRPPRLPRPRPRPDKEPRP	-0.478
RRIRNRPPRLPRPRPRPSAMPRP	-0.188
RRIRIRPPRLPRPRPRPNQPPRP	-0.0903
RRIRIRPPRLPRPRPRPFYHPRP	-0.594
RRIRFRPPRLPRPRPRPYHEPRP	-0.26
RRIRARPPRLPRPRPRPRWKPRP	0.462
RRIRNRPPRLPRPRPRPRRFPRP	0.0247
RRIRRRPPRLPRPRPRPWHLPRP	-0.138
RRIRMRPPRLPRPRPRPYCAPRP	-0.515

Sequence	shrunken log2 fold change
RRIRHRPPRLPRPRPRPTWEPRP	0.0143
RRIRMRPPRLPRPRPRPHLMPRP	0.151
RRIRCRPPRLPRPRPRPDAAPRP	1.03
RRIRGRPPRLPRPRPRPISWPRP	-0.0765
RRIRPRPPRLPRPRPRPFMQPRP	-0.396
RRIRQRPPRLPRPRPRPYSQPRP	-0.195
RRIRYRPPRLPRPRPRPYVCPRP	-1.14
RRIRKRPPRLPRPRPRPMWDPRP	-0.0178
RRIRYRPPRLPRPRPRPEYAPRP	-0.0128
RRIRFRPPRLPRPRPRPKANPRP	0.00613
RRIRWRPPRLPRPRPRPWWLPRP	0.162
RRIRQRPPRLPRPRPRPYYQPRP	-0.284
RRIRNRPPRLPRPRPRPCSYPRP	-0.212
RRIRYRPPRLPRPRPRPNCSPRP	-0.973
RRIRERPPRLPRPRPRPILWPRP	-0.161
RRIRHRPPRLPRPRPRPYGDPRP	-0.808
RRIRKRPPRLPRPRPRPPFFPRP	0.476
RRIRYRPPRLPRPRPRPPQEPRP	1.9
RRIRSRPPRLPRPRPRPWHAPRP	0.0362
RRIRIRPPRLPRPRPRPEYFPRP	-0.0312
RRIRKRPPRLPRPRPRPAVHPRP	0.112
RRIRIRPPRLPRPRPRPGITPRP	-0.182
RRIRPRPPRLPRPRPRPNNSPRP	-0.488
RRIRIRPPRLPRPRPRPDCDPRP	-0.242
RRIRGRPPRLPRPRPRPIGMPRP	0.244
